Assay results reported in patent US9789130B2, “Method for blocking HIV entry into dendritic cells by inhibiting sialoadhesin-sialyllactose binding interactions with gangliosides” (LABORATORIOS DEL DR. ESTEVE, S.A., priority 2011, dated 2017).
Values belong to the molecule of their own block, whether it stands above or below them.

Molecular target: T1, Siglec-1 (Homo sapiens, UniProt Q9BZZ2)
T1 construct: Siglec-1 expressed in LPS mDCs capture distinct ganglioside containing vesicles; endogenous in cells; host or cells: LPS-matured monocyte-derived dendritic cells (LPS mDCs) from donor PBMCs
T1 sequence (Q9BZZ2 20-1709): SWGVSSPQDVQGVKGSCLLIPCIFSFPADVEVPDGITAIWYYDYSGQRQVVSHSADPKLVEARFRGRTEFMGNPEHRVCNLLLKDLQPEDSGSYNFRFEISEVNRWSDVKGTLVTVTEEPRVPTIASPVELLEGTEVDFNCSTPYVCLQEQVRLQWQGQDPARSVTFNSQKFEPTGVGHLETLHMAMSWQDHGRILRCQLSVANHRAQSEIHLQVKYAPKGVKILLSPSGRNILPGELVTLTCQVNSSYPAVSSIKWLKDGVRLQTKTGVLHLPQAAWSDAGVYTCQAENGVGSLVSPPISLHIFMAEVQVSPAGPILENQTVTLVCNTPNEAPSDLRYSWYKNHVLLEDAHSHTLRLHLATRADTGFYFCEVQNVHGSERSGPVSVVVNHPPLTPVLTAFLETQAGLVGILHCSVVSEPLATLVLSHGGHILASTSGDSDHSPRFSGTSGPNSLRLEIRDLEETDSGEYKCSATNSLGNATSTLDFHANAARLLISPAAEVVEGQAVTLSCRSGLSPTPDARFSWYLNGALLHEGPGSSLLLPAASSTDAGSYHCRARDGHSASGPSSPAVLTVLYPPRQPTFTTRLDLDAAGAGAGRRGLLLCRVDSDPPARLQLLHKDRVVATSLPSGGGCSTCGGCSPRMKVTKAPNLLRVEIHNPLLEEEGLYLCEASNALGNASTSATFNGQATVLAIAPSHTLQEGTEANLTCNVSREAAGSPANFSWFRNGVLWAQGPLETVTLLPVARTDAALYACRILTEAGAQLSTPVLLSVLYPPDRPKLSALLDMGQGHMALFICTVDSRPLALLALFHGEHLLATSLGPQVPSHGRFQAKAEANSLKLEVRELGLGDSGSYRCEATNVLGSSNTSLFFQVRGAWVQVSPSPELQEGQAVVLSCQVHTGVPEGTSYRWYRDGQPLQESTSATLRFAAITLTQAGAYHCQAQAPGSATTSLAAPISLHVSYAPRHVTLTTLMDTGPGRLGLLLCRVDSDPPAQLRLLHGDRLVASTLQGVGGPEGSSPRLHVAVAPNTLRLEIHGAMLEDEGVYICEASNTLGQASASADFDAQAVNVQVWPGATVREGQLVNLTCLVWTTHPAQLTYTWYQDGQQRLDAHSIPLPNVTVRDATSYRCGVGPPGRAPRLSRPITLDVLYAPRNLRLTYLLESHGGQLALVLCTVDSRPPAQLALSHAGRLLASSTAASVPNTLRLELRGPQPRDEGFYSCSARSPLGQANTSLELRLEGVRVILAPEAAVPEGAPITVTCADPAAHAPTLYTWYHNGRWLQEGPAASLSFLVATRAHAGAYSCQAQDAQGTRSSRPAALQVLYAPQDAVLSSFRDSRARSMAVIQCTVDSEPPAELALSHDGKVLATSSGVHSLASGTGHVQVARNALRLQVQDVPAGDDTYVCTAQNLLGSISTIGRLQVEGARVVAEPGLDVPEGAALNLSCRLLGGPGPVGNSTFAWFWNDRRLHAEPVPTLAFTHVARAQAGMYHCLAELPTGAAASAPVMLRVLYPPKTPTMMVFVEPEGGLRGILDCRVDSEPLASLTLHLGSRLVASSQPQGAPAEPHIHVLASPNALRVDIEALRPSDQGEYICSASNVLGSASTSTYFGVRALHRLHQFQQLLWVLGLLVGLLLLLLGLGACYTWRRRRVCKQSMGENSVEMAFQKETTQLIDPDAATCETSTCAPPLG
Experiment: VLP capture by LPS mDCs pre-incubated with α-Siglec-1 mAbs
Assay type: cell-based
Conditions: 2 μg/ml mAb 7D2 treated with at least 100-fold molar excess of human recombinant protein
Description: FIG. 11. Siglec-1 expressed in LPS mDCs capture distinct ganglioside containing vesicles, such as HIV-1 viral-like particles, liposomes, and exosomes. Capture of VLPHIV-Gag-eGFP by LPS mDCs that had been pre-incubated with decreasing concentrations of α-Siglec-1 mAb 7D2 before VLP exposure for 30 min at 37° C.
FIG. 12. Capture of VLPHIV-Gag-eGFP by LPS mDCs that had been pre-incubated with or without 2 μg/ml of α-Siglec-1 mAb 7D2 previously treated or not with at least a 100-fold molar excess of the indicated human recombinant proteins. Of note, Siglec-14 shares 100% of amino acid homology with Siglec-5 in the V-set domain.
FIG. 13. Blocking effect of α-Siglec-1 mAb 7-239. (A) Capture of VLPHIV-Gag-eGFP by LPS mDCs that had been pre-incubated with decreasing concentrations of α-Siglec-1 mAb 7-239 before VLP exposure for 30 min at 37° C. […] (B) Capture of VLPHIV-Gag-eGFP by LPS mDCs that had been pre-incubated with 10 μg/ml of the indicated mAbs before VLP exposure for 3 h at 37° C.

VLP capture by LPS mDCs with mAb 7D2 pre-incubated with purified protein: had no effect
B1: CD83: human recombinant CD83 protein used to pre-treat mAb 7D2 (protein, UniProt Q01151 20-205, looked up)
CD83 antigen: TPEVKVACSEDVDLPCTAPWDPQVPYTVSWVKLLEGGEERMETPQEDHLRGQHYHQKGQNGSFDAPNERPYSLKIRNTTSCNSGTYRCTLQDPDGQRNLSGKVILRVTGCPAQRKEETFKKYRAEIVLLLALVIFYLTLIIFTCKFARLQSIFPDFSKAGMERAFLPVTSPNKHLGLVTPHKTELV

VLP capture by LPS mDCs with mAb 7D2 pre-incubated with purified protein: had no effect
B2: purified Siglec-7: human recombinant Siglec-7 protein used to pre-treat mAb 7D2 (protein, UniProt Q9Y286 19-467, looked up)
Sialic acid-binding Ig-like …: QKSNRKDYSLTMQSSVTVQEGMCVHVRCSFSYPVDSQTDSDPVHGYWFRAGNDISWKAPVATNNPAWAVQEETRDRFHLLGDPQTKNCTLSIRDARMSDAGRYFFRMEKGNIKWNYKYDQLSVNVTALTHRPNILIPGTLESGCFQNLTCSVPWACEQGTPPMISWMGTSVSPLHPSTTRSSVLTLIPQPQHHGTSLTCQVTLPGAGVTTNRTIQLNVSYPPQNLTVTVFQGEGTASTALGNSSSLSVLEGQSLRLVCAVDSNPPARLSWTWRSLTLYPSQPSNPLVLELQVHLGDEGEFTCRAQNSLGSQHVSLNLSLQQEYTGKMRPVSGVLLGAVGGAGATALVFLSFCVIFIVVRSCRKKSARPAADVGDIGMKDANTIRGSASQGNLTESWADDNPRHHGLAAHSSGEEREIQYAPLSFHKGEPQDLSGQEATNNEYSEIKIPK
